Test results as given in US20030082682A1 (published 2003).

T1: RXR interacting protein, RB204 (human, UniProt O75064 240-1496, limits assumed)
T1 construct: Prey clone from a two-hybrid cDNA library (human bone and cartilage cells) in a vector derived from pJG4-5
T1 sequence: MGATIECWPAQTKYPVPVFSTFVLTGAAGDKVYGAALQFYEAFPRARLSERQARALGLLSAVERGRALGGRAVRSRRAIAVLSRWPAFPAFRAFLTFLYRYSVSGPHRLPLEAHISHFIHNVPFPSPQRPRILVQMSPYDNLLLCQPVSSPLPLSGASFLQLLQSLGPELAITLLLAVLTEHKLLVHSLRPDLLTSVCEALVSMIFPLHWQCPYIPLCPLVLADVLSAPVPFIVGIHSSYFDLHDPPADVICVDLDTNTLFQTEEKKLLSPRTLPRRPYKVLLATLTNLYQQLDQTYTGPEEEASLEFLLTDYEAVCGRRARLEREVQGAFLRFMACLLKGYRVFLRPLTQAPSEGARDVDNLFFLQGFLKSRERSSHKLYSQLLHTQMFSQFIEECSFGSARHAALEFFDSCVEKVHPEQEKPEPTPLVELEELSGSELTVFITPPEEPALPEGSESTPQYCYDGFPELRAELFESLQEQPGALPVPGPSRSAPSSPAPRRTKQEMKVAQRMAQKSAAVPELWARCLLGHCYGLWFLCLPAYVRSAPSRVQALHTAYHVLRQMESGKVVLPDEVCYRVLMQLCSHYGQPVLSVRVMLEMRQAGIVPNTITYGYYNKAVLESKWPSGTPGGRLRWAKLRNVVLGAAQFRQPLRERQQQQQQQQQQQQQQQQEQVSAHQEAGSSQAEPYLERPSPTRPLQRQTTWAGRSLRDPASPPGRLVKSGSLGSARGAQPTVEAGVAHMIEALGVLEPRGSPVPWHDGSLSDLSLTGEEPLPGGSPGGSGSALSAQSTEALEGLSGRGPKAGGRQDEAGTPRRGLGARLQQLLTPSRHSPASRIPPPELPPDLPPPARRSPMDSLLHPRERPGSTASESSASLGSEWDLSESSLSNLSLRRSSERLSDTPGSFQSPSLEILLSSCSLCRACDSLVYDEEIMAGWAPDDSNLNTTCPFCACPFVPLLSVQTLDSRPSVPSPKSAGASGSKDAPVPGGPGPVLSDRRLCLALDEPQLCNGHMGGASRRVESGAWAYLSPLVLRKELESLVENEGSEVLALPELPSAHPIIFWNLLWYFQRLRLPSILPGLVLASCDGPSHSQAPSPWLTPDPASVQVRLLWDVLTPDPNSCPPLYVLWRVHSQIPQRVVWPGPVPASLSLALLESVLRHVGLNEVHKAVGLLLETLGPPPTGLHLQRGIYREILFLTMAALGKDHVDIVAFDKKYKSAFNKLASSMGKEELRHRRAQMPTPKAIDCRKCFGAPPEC

B1: PPARd (receptor, UniProt Q03181 139-441, looked up)
chain: SHNAIRFGRMPEAEKRKLVAGLTANEGSQYNPQVADLKAFSKHIYNAYLKNFNMTKKKARSILTGKASHTAPFVIHDIETLWQAEKGLVWKQLVNGLPPYKEISVHVFYRCQCTTVETVRELTEFAKSIPSFSSLFLNDQVTLLKYGVHEAIFAMLASIVNKDGLLVANGSGFVTREFLRSLRKPFSDIIEPKFEFAVKFNALELDDSDLALFIAAIILCGDRPGLMNVPRVEAIQDTILRALEFHLQANHPDAQYLFPKLLQKMADLRQLVTEHAQMMQRIKKTETETSLHPLLQEIYKDMY
notes: Member of the panel of nuclear hormone receptors in the directed two-hybrid analysis; the construct is not described
B2: PPARa (receptor, UniProt Q07869 167-468, looked up)
chain: SHNAIRFGRMPRSEKAKLKAEILTCEHDIEDSETADLKSLAKRIYEAYLKNFNMNKVKARVILSGKASNNPPFVIHDMETLCMAEKTLVAKLVANGIQNKEAEVRIFHCCQCTSVETVTELTEFAKAIPGFANLDLNDQVTLLKYGVYEAIFAMLSSVMNKDGMLVAYGNGFITREFLKSLRKPFCDIMEPKFDFAMKFNALELDDSDISLFVAAIICCGDRPGLLNVGHIEKMQEGIVHVLRLHLQSNHPDDIFLFPKLLQKMADLRQLVTEHAQLVQIIKKTESDAALHPLLQEIYRDMY
notes: as for B1
B3: ERb (receptor, UniProt Q92731 248-530, looked up)
chain: SGGHAPRVRELLLDALSPEQLVLTLLEAEPPHVLISRPSAPFTEASMMMSLTKLADKELVHMISWAKKIPGFVELSLFDQVRLLESCWMEVLMMGLMWRSIDHPGKLIFAPDLVLDRDEGKCVEGILEIFDMLLATTSRFRELKLQHKEYLCVKAMILLNSSMYPLVTATQDADSSRKLAHLLNAVTDALVWVIAKSGISSQQQSMRLANLLMLLSHVRHASNKGMEHLLNMKCKNVVPVYDLLLEMLNAHVLRGCKSSITGSECSPAEDSKSKEGSQNPQSQ
notes: as for B1
B4: HNF4g (receptor, UniProt Q14541 99-408, looked up)
chain: SNIPSINTLAQAEVRSRQISVSSPGSSTDINVKKIASIGDVCESMKQQLLVLVEWAKYIPAFCELPLDDQVALLRAHAGEHLLLGATKRSMMYKDILLLGNNYVIHRNSCEVEISRVANRVLDELVRPFQEIQIDDNEYACLKAIVFFDPDAKGLSDPVKIKNMRFQVQIGLEDYINDRQYDSRGRFGELLLLLPTLQSITWQMIEQIQFVKLFGMVKIDNLLQEMLLGGASNDGSHLHHPMHPHLSQDPLTGQTILLGPMSTLVHADQISTPETPLPSPPQGSGQEQYKIAANQASVISHQHLSKQKQL
notes: as for B1

Molecular target: T1, RXR interacting protein, RB204
Assay: two-hybrid, directed analysis against a panel of nuclear hormone receptors
Description: Screening was performed as per standard protocols (Golemis et al., Current protocols in molecular biology, 20.0.1,1999). […] RB204 interacts weakly with ERa in the presence of estradiol. Sequence analysis identified an LXXLL nuclear hormone interaction motif within the RB204 open reading frame.

binding result | Binder
no binding | B1
no binding | B2
no binding | B3
no binding | B4
